In patent US20190077883A1:

Target: GST-tagged human FcRn (human; Schistosoma japonicum) (UniProt P55899)
Assay: ELISA pH 6.0, h9C12 variant captured on AdV5 hexon, GST-hFcRn detected with anti-GST-HRP

- Fold change from WT (ELISA) pH 6.0: 3 fold
B1: h9C12 IgG3(b)-Q311R/N434W/M428E/R435H (antibody, part only; not given: variable domains, not shown: another chain or arm of the molecule)
constant: ASTKGPSVFPLAPCSRSTSGGTAALGCLVKDYFPEPVTVSWNSGALTSGVHTFPAVLQSSGLYSLSSVVTVPSSSLGTQTYTCNVNHKPSNTKVDKRVELKTPLGDTTHTCPRCPEPKSCDTPPPCPRCPEPKSCDTPPPCPRCPEPKSCDTPPPCPRCPAPELLGGPSVFLFPPKPKDTLMISRTPEVTCVVVDVSHEDPEVQFKWYVDGVEVHNAKTKPREEQYNSTFRVVSVLTVLHRDWLNGKEYKCKVSNKALPAPIEKTISKTKGQPREPQVYTLPPSREEMTKNQVSLTCLVKGFYPSDIAVEWESSGQPENNYNTTPPMLDSDGSFFLYSKLTVDKSRWQQGNIFSCSVEHEALHWHFTQKSLSLSPGK
